From the DeepSol protein solubility set come the findings set out here.

The data set can be described thus: soluble on expression in E. coli; label from the status in PepcDB or PDB records.
For the sequence “MSLSQRTDCSLARRSSTVRKQDSSQAIPLVVESCIRFISRHGLQHEGIFRVSGSQVEVNDIKNAFERGEDPLAGDQNDHDMDSIAGVLKLYFRGLEHPLFPKDIFHDLMACVTMDNLQERALHIRKVLLVLPKTTLIIMRYLFAFLNHLSQFSEENMMDPYNLAICFGPSLMSVPEGHDQVSCQAHVNELIKTIIIQHENIFPSPREEGHHHHHH”, the “soluble on expression in E. coli” value was “soluble”.

Take “MSLSQTTNIKEQTDTGLAPPAPAITTNSAAIEEQANSSIRKLYHTLNTMPNTSMADRISQISAYFKGTKYILGSLGEGPNARYDQFPRYRVDGFDCDTYVNTVLSLALANSLESFQECLKHTRYKNGKRSYINRNHFTSIDWNNYNQKRGLLKDITFSIRNEKKQPVALYANALINKPQWYNHKTIDTIRLQKQDKNEQEKRLVELKAKGKTLETSLSNVPYIPFTALFSENKPNLHLFSQIPNGAVIEIIRPNWDLRQQIGTELDISHLGFAIWINNELFFRQASSQYGKVVDVSLIDYLDKARSSPTIKGINIQVVLPEKPVSNGCQLFDIREGHHHHHH”: the “soluble on expression in E. coli” value is reported as “soluble”.

With “MSLSRIIMLIPTGTSVGLTSVSLGVIRAMERKGVRLSVFKPIAQPRTGGDAPDQTTTIVRANSSTTTAAEPLKMSYVEGLLSSNQKDVLMEEIVANYHANTKDAEVVLVEGLVPTRKHQFAQSLNYEIAKTLNAEIVFVMSQGTDTPEQLKERIELTRNSFGGAKNTNITGVIVNKLNAPVDEQGRTRPDLSEIFDDSSKAKVNNVDPAKLQESSPLPVLGAVPWSFDLIATRAIDMARHLNATIINEGDINTRRVKSVTFCARSIPHMLEHFRAGSLLVTSADRPDVLVAACLAAMNGVEIGALLLTGGYEMDARISKLCERAFATGLPVFMVNTNTWQTSLSLQSFNLEVPVDDHERIEKVQEYVANYINADWIDSLTATSERSRRLSPPAFRYQLTELARKAGKRIVLPEGDEPRTVKAAAICAERGIATCVLLGNPAEINRVAASQGVELGAGIEIVDPEVVRESYVGRLVELRKNKGMTETVAREQLEDNVVLGTLMLEQDEVDGLVSGAVHTTANTIRPPLQLIKTAPGSSLVSSVFFMLLPEQVYVYGDCAINPDPTAEQLAEIAIQSADSAAAFGIEPRVAMLSYSTGTSGAGSDVEKVREATRLAQEKRPDLMIDGPLQYDAAVMADVAKSKAPNSPVAGRATVFIFPDLNTGNTTYKAVQRSADLISIGPMLQGMRKPVNDLSRGALVDDIVYTIALTAIQSAQQQEGHHHHHH”, the “soluble on expression in E. coli” value was “not soluble”.

For “MSLSRLPLIGVTACSRQIGLHAYHISGDEYVHAVASAAQGVPVIIPSMAELLSPSDILDGLDGILFTGSPSNIEPFHYQGPASAPGTAHDSARDAATLPLLSAAVASGVPVLGICRGFQEMNVALGGSLHQNVQQVQPFMDHRHAEQPGQPLDAWYAPAHDLHIKAGGVLAGLGLPERIQVNSIHAQGVERLAPGLRVEALAPDGLVEAVSVEASKAFALGVQWHPEWQVSCNPHYLAIFQAFGDACRKRARQRDAEASHKEGHHHHHH”, the “soluble on expression in E. coli” value is “soluble”.

As to “MSLSTLKRDHIKKNLRDTEYDVVIVGGGITGAGIALDASNRGMKVALVEMQDFAQGTSSRSTKLVHGGLRYLKQLQVGVVAETGKERAIVYENGPHVTTPEWMLLPMHKGGTFGKFSTSIGLAMYDRLAGVKKSERKKMLSKQETLNKEPLVKRDGLKGGGYYVEYRTDDARLTIEVMKKAAENGAEILNYTKSEHFTYDSNKKVNGIEVLDMIDGETYAIKAKKVINASGPWVDEVRSGDYARNNKQLRLTKGVHVVIDQSKFPLGQAVYFDTEKDGRMIFAIPREGKAYVGTTDTFYDNEKATPLTTQEDRDYLINAINYMFPTVNVKDEDIESTWAGIRPLILEKGKDPSEISRKDEVWEGESGLLTIAGGKLTGYRHMALEIVDLLAKRLKQEYGLKFESCATKNLKISGGDVGGSKNFEHFVEQKVDAAKGFGIDEDVARRLASKYGSNVDQLFNIAQTAPYHDSKLPLEIYVELVYSIQQEMVYKPTDFLVRRSGKLYFNIQDVLDYKNAVIDVMADMLNYSETQKEAYTEEVEVAIDEARTGNDQPATKALEHHHHHH”, the “soluble on expression in E. coli” value was “soluble”.

With “MSLSVAIIGPGAVGTTIAYELQQSLPHTTLIGRHAKTITYYTVPHAPAQDIVVKGYEDVTNTFDVIIIAVKTHQLDAVIPHLTYLAHEDTLIILAQNGYGQLEHIPFKNVCQAVVYISGQKKGDVVTHFRDYQLRIQDNALTRQFRDLVQDSQIDIVLEANIQQAIWYKLLVNLGINSITALGRQTVAIMHNPEIRILCRQLLLDGCRVAQAEGLNFSEQTVDTIMTIYQGYPDEMGTSMYYDIVHQQPLEVEAIQGFIYRRAREHNLDTPYLDTIYSFLRAYQQNEGHHHHHH”, the “soluble on expression in E. coli” value is recorded as “soluble”.

Regarding “MSLSWYEEWFWSDAYTRVYDHRDDAEAEQLVDLIEHEIAPASGAHILDIGCGRGRHARALVRRGWQVTGLDLSEDAVAAARSRVADDDLDVRASFRVGDMRTPVCDGCADGVVNLFTSFGYFDADAENERALAAMATALRPGGWFLQDFLNAPQVAESLGASVYETEDGRTIHQDRWIEDGRVNKKITVRQNGHTETFQESVRLYTRSDLTAMYERVGLEVVALFGDYDGGNYVPDESPRLLLHAVRPTEGHHHHHH”, the “soluble on expression in E. coli” value is listed as “soluble”.

“MSLSYVHTEIQNDALYITLDYPEKKNGLDAELGTSLLEAIRAGNNETSIHSIILQSKHRAYFSSGPRLEDLLICASDQSDVRLREVLHVLNHCVLEIFTSPKVTVALINGYAYGGGFNMMLACDRRIALRRAKFLENFHKMGISPDLGASYFLPRIIGYEQTMNLLLEGKLFTSEEALRLGLIQEICENKQELQERVKNYLKAVSEGYVPAIAATKKLLKGKAAEELKQQLEQETEELVALFKQTEIKKRLEALVEGHHHHHH”: the “soluble on expression in E. coli” value was “soluble”.

Turning to “MSLTALYVQNKINGKIILPFSHSMTNVLRLNRSYGRTMLISNTYNQHFPQLTQEQLARNATKKVICGMSGGVDSSVSAFILQQQGYQVEGLFMKNWEEDDDTDYCTAAADLADAQAVCDKLGIKLHKINFAAEYWDNVFEHFLTEYKAGRTPNPDILCNKEIKFKAFLEYAAEDLGADYIATGHYVRRAGDNENAKLLRGLDPNKDQSYFLYTLSHKQVGQSLFPVGEIEKPIVRAIAEDLGLITAKKKDSTGICFIGERKFKDFLARYLPAQPGNIRTVDDEIIGRHDGLMYHTLGQRKGLGIGGLKNAGDEAWYVVDKDVENNELIVAQGHDHPRLFSKGLIASQLHWVDREPIRESLRCTVKTRYRQQDIPCVIEPIDDETIRVIFDEPQSAVTPGQSAVFYLGEVCLGGGIIAERIEGHHHHHH”, the “soluble on expression in E. coli” value is “soluble”.

With “MSLTASAPRRPAAFLDRDGVINYNDHYVGTRERLRWMPGIAAAIRQLNAAGYYVFIITNQSGVARGMFSEDDVRALHRWMLDELNTQGARIDDVRFCPHHVEGTLDAYRVACEHRKPGPGMILDLAKTWPVDMTRSFVIGDSASDVEAAKAAGIPGFRFEGEDIDVFVKQVLIEMQRAAVSNEGHHHHHH”, the “soluble on expression in E. coli” value was “soluble”.

For “MSLTASIPINSNLIVHVGNNVRIDAFGLKARLTGDLNVVQDKQGLGLNGQINIPEGRFHAYGQDLIVRKGELLFSGPPDQPYLNIEAIRNPDATEDDVIAGVRVTGLADEPKAEIFSDPAMSQQAALSYLLRGQGLESDQSDSAAMTSMLIGLGVAQSGQIVGKIGETFGVSNLALDTQGVGDSSQVVVSGYVLPGLQVKYGVGIFDSIATLTLRYRLMPKLYLEAVSGVDQALDLLYQFEFEGHHHHHH”, the “soluble on expression in E. coli” value is given as “not soluble”.

Turning to “MSLTDIRDHRDMLTVHHLNNSRSQRVLWLLEELDTPYEIKRYQRQPDMMAPKELRAVHPLGKSPVITDNGNTIAESGAIIEYIVGTYGNGRLIPPPNTPERLRYTYWLHYAEGSAMPPLLLKLLFSMMPQRAPALVRPLVKMVASGALTGFVDPQLKLHMDYWESELGKAAYFAGDEFTAADIQMSFPLEAAAARGGLDQRYPKAQAWLERIHARPAYNRALEKGGPYEIGKAEGHHHHHH”, the “soluble on expression in E. coli” value is on record as “soluble”.

For “MSLTEAAKLTFKVTNPNEKVKVRLTFSQSGEQKEVAIDAAGNGNIEITGFTPQYVTMQYTRGRRTLYLDPNQDLTLSFDSDNMWRNTTFEGAGAAINTYLGSKELQSLGMPDMKMQEAALIHKGDSLYAANCQVLEAAKLPADFTAQEKIRLQFYTYYYFSKYALYHPHFGKDDNYIPSKAYYEKLEAITPINAGLLALKEYKAFLPDAISAFSNKGKTVASNSTEQSVNYVDATIQDEKVAEFLIDQFVYNFVDNNGLDEADGLIVLFRKHVKDAKSIEKFNALCTKWEKLRSGNPSAASFSYPDINGKTVSLADLKGKYIYIDVWATWCGPCRGELPALKELEEKYAGKDIHFVSLSCDKNKKAWENMVTKDQLKGIQLHMGTDRTFMDAYLINGIPRFILLDRDGKIISANMTRPSDPKTAEKFNELLGLEGHHHHHH”, the “soluble on expression in E. coli” value is given as “soluble”.

Take “MSLTELEFVTEHRRYLHKHPELSLHEYETTKYIAHFLDDLGVPYERPLDTGVIAYLSGNSTHTIAYRADIDALPIYEENNVSYRSEVDHVMHACGHDGHTTALMLFVKRCKNLADKGELPQNIVFIFQPAEETGGGANRLIRAGAFEKYPIEAVFGIHVMPFENEGRVVIRDEEITASATEYRFYLHGLSSHVADKEQGHSCGEALQHVLTQVGQIQQYHLNGLKRNIVHMGHFEAGEAINTVPSNGYLEGTIRTYDVKDLEIVKQQMTKISESVKLLFNVECEVKFEEGYPPTFNDPQLRKHVENGLVNAEFEVIDKPTPYLFGEDFSFYSQIAPSYFVFVGVRDEAKGYVTGLHTSHLNFNESILIRIADYYEQILKSYSEVQSEGHHHHHH”: the “soluble on expression in E. coli” value is listed as “soluble”.

In the case of “MSLTETILSVGIDLGTSTTQLILSELEIQNMASSFTVPRIVISDKRIIFRSEILFTPILADNLIDVEAIRDFVTKEYANAGIKKEEIGMGAVIITGETARKDNASNVLDAMSGFAGDFVVATAGPDLESIIAGKGAGAHTYAKENNTSVVNLDIGGGTTNLSLFDRGELIDTACLDIGGRLIKVDRETRKITYIAPKIQALIEKRGYPVKLGETTSPENLQPVLGEMVELLKNSVGLGAPNDFYKTIITNKGLKFLTEIECISFSGGVADCISTGALSDPFRYGDIGLLLGKAIAESSLMTEKKYIESVETIRATVVGAGSHTAEISGSTITYTEKIFPVKNIPILKLAKQEEDENMAEVIKEKLSWFKIENEMEHIALAIEGENSPSFQQVTEYAKAICEGMKEPIALGHPLIIITWHDMAKALGQSIFGHLPAGHPLICLDSVKVDNGDYIDIGKPVADGKVLPVVVKTLVFNEGHHHHHH”, the “soluble on expression in E. coli” value is “soluble”.

With “MSLTGVLGFYTLEEGPTLPSSFTSFANNTGQLSSTALFMFRISAANPTTIEKFGEFTDQDVRNLVAIAHRNNVKIMPVVHNLLYRPGGTTLAKNVVKTLVSDPRNRNAFALNLVNLIERYGFDGVNIDIEDVFIEDSDNLSLLYTEISEVLRPRGYFFSASVPSRVSDEPFNPFSDPFNYSVIGRAVDEFVVMLYNEFGWPGSPPGPAVTIGWMERVLRYTMSKMPRDKIMAAVSVFGFDFNLTTGRNTYVTYQSAINLARRYNSEIIFNEERQTPMFTYRDAQGNQHEVWFEDARSLRSKIQLAWELGIKGVALWRLGMEDPNIWPMLRNEVVVRKFEGHHHHHH”, the “soluble on expression in E. coli” value is reported as “soluble”.
